Experimental data as given in PMC12749989, “Conformational plasticity across phylogenetic clusters of RND multidrug efflux pumps and its impact on substrate specificity” (Nature Communications, 2025).
Numbering of substitutions follows the chain as printed.

What was measured:
[1] = target: K. pneumoniae OqxB (Klebsiella pneumoniae); assay: cryo-EM structure; single-particle cryo-EM of AcrB or OqxB reconstituted in detergent-free salipro nanodiscs (saposinA, E. coli total lipids), 20 mM Tris pH 7.5, 150 mM NaCl
[2] = target: K. pneumoniae OqxB (Klebsiella pneumoniae); assay: crystal structure; detergent-solubilised (DDM) OqxB; sitting drop, 25 °C, 12% PEG4000, 0.2 M MgCl2, 100 mM ADA pH 6.5
[3] = target: the molecule itself; assay: cryo-EM structure; single-particle cryo-EM of DDM-solubilised AcrB; trimer composition from the classified monomers
[4] = target: the molecule itself; assay: crystal structure; DDM-solubilised AcrB variants mixed with DARPins 1:2, excess DARPin removed by SEC (20 mM Tris pH 7.5, 150 mM NaCl, 0.03 % DDM); hanging drop, 18 °C; with 2 mM minocycline or apo
[5] = target: the molecule itself; assay: cryo-EM structure; single-particle cryo-EM of AcrB or OqxB reconstituted in detergent-free salipro nanodiscs (saposinA, E. coli total lipids), 20 mM Tris pH 7.5, 150 mM NaCl

K. pneumoniae OqxB (natural protein)
stoichiometry N [1]: 3 | stoichiometry N [2]: 3

B1: E. coli AcrB V612W (natural protein)
chain: MPNFFIDRPIFAWVIAIIIMLAGGLAILKLPVAQYPTIAPPAVTISASYPGADAKTVQDTVTQVIEQNMNGIDNLMYMSSNSDSTGTVQITLTFESGTDADIAQVQVQNKLQLAMPLLPQEVQQQGVSVEKSSSSFLMVVGVINTDGTMTQEDISDYVAANMKDAISRTSGVGDVQLFGSQYAMRIWMNPNELNKFQLTPVDVITAIKAQNAQVAAGQLGGTPPVKGQQLNASIIAQTRLTSTEEFGKILLKVNQDGSRVLLRDVAKIELGGENYDIIAEFNGQPASGLGIKLATGANALDTAAAIRAELAKMEPFFPSGLKIVYPYDTTPFVKISIHEVVKTLVEAIILVFLVMYLFLQNFRATLIPTIAVPVVLLGTFAVLAAFGFSINTLTMFGMVLAIGLLVDDAIVVVENVERVMAEEGLPPKEATRKSMGQIQGALVGIAMVLSAVFVPMAFFGGSTGAIYRQFSITIVSAMALSVLVALILTPALCATMLKPIAKGDHGEGKKGFFGWFNRMFEKSTHHYTDSVGGILRSTGRYLVLYLIIVVGMAYLFVRLPSSFLPDEDQGVFMTMVQLPAGATQERTQKVLNEVTHYYLTKEKNNVESVFAWNGFGFAGRGQNTGIAFVSLKDWADRPGEENKVEAITMRATRAFSQIKDAMVFAFNLPAIVELGTATGFDFELIDQAGLGHEKLTQARNQLLAEAAKHPDMLTSVRPNGLEDTPQFKIDIDQEKAQALGVSINDINTTLGAAWGGSYVNDFIDRGRVKKVYVMSEAKYRMLPDDIGDWYVRAADGQMVPFSAFSSSRWEYGSPRLERYNGLPSMEILGQAAPGKSTGEAMELMEQLASKLPTGVGYDWTGMSYQERLSGNQAPSLYAISLIVVFLCLAALYESWSIPFSVMLVVPLGVIGALLAATFRGLTNDVYFQVGLLTTIGLSAKNAILIVEFAKDLMDKEGKGLIEATLDAVRMRLRPILMTSLAFILGVMPLVISTGAGSGAQNAVGTGVMGGMVTATVLAIFFVPVFFVVVRRRFSRKNEDIEHSHTVDHH
notes: Homotrimer; source: E. coli C43 (DE3) ∆acrB, purified (Ni-NTA, SEC), DDM-solubilised
stoichiometry N [3]: 3

B2: E. coli AcrB V612N (natural protein)
chain: B1 chain with W612N
notes: as for B1
stoichiometry N [4]: 3

B3: E. coli AcrB V612F (natural protein)
chain: B1 chain with W612F
notes: Homotrimer; source: E. coli C43 (DE3) ∆acrB, purified (Ni-NTA, SEC); DDM-solubilised, in cyclohexyl-n-hexyl-β-D-maltoside (apo crystals) or reconstituted in salipro nanodiscs
stoichiometry N [5]: 3
